# Laboratory results reported in US20230025732A1 (INNATE PHARMA, published 2023).
# Changes are numbered by the printed parent chain. Numbers in names are those of the source.
# T1: human CD39 expressed at the cell surface (human, UniProt P49961 1-510)
# T1 construct: On CHO transfectants, Hek-293T transfectants, Ramos and Mino tumor cells; also called huCD39; CHO-huCD39
# T1 sequence: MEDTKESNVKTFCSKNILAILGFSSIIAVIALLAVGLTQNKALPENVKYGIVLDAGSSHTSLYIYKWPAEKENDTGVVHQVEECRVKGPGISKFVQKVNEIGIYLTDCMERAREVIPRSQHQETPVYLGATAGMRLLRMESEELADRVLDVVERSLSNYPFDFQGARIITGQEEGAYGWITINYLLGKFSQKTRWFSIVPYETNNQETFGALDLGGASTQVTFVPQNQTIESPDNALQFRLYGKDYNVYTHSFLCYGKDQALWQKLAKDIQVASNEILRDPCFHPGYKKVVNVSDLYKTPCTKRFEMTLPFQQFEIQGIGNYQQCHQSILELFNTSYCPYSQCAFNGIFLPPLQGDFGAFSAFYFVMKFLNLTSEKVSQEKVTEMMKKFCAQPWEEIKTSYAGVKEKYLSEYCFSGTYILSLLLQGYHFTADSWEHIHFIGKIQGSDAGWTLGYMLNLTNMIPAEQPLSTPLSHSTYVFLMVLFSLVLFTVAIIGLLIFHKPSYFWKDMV
# B1: mAb2 H0L1 (antibody, human IgG1, V domains shown)
# VH: QVQLVQSGAEVKKPGASVKVSCKASGYTFTDYNMHWVRQAPGQRLEWMGYIVPLNGGSTFNQKFKGRVTITRDTSASTAYMELSSLRSEDTAVYYCARGGTRFAYWGQGTLVTVSS
# VL: DIVMTQSPDSLAVSLGERATINCRASESVDNFGVSFMYWFQQKPGQPPKLLIYGASNQGSGVPDRFSGSGSGTDFTLTISSLQAEDVAVYYCQQTKEVPYTFGGGTKVEIK
# B2: mAb11 H2*L1 (antibody, human IgG1, V domains shown)
# VH: B1 VH with N61S, V68A, R72V
# VL: B1 VL
# B3: mAb17 H3*L1 (antibody, human IgG1, V domains shown)
# VH: B1 VH with M48I, N61S, K65Q, V68A, R72V
# VL: B1 VL
# B4: mAb20 H4L1 (antibody, human IgG1, kappa, V domains shown)
# VH: B1 VH with M48I, V68A, R72V, S77R
# VL: DIVMTQSPDSLAVSLGERATINCRASESVDNFGVSFMYWFQQKPGQPPKLLIYGASNQGSGVPDRFSGSGSGTDFTLTISSLQAEDVAVYYCQQTKEVPYTFGGGTKVEIKR
# notes: full heavy chain carries L234A/L235E/G237A/A330S/P331S
# What was measured:
# [1] = target: T1, human CD39 expressed at the cell surface; assay: flow cytometry, CHO cells expressing human CD39
# Method: Cells were incubated with various concentration of unlabeled anti-CD39 antibody from 30 μg/ml to 5×10⁻⁴ μg/ml, for 30 minutes at 4° C. After washes, cells were incubated with Goat anti-mouse H+L labeled secondary antibody for 30 min at 4° C.
# Antibodies mAb1-21 were assessed for binding to CD39 by flow cytometry as described in Example 7, using CHO cells expressing human CD39 and CHO cells expressing cynomolgus (Macaca fascicularis) CD39.
# [2] = target: T1, human CD39 expressed at the cell surface; assay: flow cytometry titration on Ramos lymphoma cells (Mean of Fluorescence), panel L1
binder,measurement,setting,value
B1,binding result,[1],binds
B2,binding result,[1],binds
B3,binding result,[1],binds
B4,EC50 (read off the curve),[2],~0.8 µg/mL
